Assay results: patent publication US20260242419A1, “A CYCLIC PEPTIDE FOR TRAPPING INTERLEUKIN-1 BETA” (Merck Sharp & Dohme LLC, priority 2023, published 2026)
Starred links: 1 amine or outer side, 2 acyl side, 3 side chain; linkers in the order of their positions; H or OH if unused. Non-standard residues stand in square brackets, D forms with d. No end group written: not given here. dProc3CH24Pal = (2R,3S)-3-(4-pyridylmethyl)pyrrolidine-2-carboxylic acid, O=C([C@H]1[C@@H](Cc2ccncc2)CCN1[*:1])[*:2]; AlaPyrim4CONH2 = (2S)-2-amino-3-(2-carbamoylpyrimidin-5-yl)propanoic acid, NC(=O)c1ncc(C[C@H](N[*:1])C(=O)[*:2])cn1; sbOH4Pal = (2S,3S)-2-amino-3-hydroxy-3-(4-pyridyl)propanoic acid, O=C([C@@H](N[*:1])[C@@H](O[*:3])c1ccncc1)[*:2]; daMeSMe = (2R)-2-amino-3-methoxy-2-methyl-propanoic acid, COC[C@@](C)(N[*:1])C(=O)[*:2]; alTOMe = (2S,3S)-2-amino-3-methoxy-butanoic acid, CO[C@@H](C)[C@H](N[*:1])C(=O)[*:2]; ThrOMe = (2S,3R)-2-amino-3-methoxy-butanoic acid, CO[C@H](C)[C@H](N[*:1])C(=O)[*:2]; dPro(4R-(4-pyridylmethyl)) = O=C(O)[C@H]1C[C@@H](Cc2ccncc2)CN1; Trp(βS-Me,4-F) = C[C@@H](c1c[nH]c2cccc(F)c12)[C@H](N)C(=O)O; Bip(4'-COOH) = N[C@@H](Cc1ccc(-c2ccc(C(=O)O)cc2)cc1)C(=O)O; dPro(3S-(4-F-Bn)) = O=C(O)[C@@H]1NCC[C@@H]1Cc1ccc(F)cc1; Trp(4-Cl) = N[C@@H](Cc1c[nH]c2cccc(Cl)c12)C(=O)O; Ala(pyrimidin-5-yl) = N[C@@H](Cc1cncnc1)C(=O)O; Phe(4-COOH) = N[C@@H](Cc1ccc(C(=O)O)cc1)C(=O)O; Trp(4-F) = N[C@@H](Cc1c[nH]c2cccc(F)c12)C(=O)O; Bip = N[C@@H](Cc1ccc(-c2ccccc2)cc1)C(=O)O; Pro(cis-4-F) = O=C(O)[C@@H]1C[C@H](F)CN1; Met(O2) = CS(=O)(=O)CC[C@H](N)C(=O)O; d(αMeF) = C[C@@](N)(Cc1ccccc1)C(=O)O; Dap(CONH2) = NC(=O)NC[C@H](N)C(=O)O; hTyr = N[C@@H](CCc1ccc(O)cc1)C(=O)O; cisHyp = O=C(O)[C@@H]1C[C@H](O)CN1; d(αMeD) = C[C@@](N)(CC(=O)O)C(=O)O; 4Pal = N[C@@H](Cc1ccncc1)C(=O)O; d3Pal = N[C@H](Cc1cccnc1)C(=O)O; aThr = C[C@H](O)[C@H](N)C(=O)O; NMeDab = CN[C@@H](CCN)C(=O)O; dCba = N[C@H](CC1CCC1)C(=O)O; dOrn = NCCC[C@@H](N)C(=O)O; dDab = NCC[C@@H](N)C(=O)O; dDap = NC[C@@H](N)C(=O)O; Dab = NCC[C@H](N)C(=O)O; Nva = CCC[C@H](N)C(=O)O; Aib = CC(C)(N)C(=O)O

B1: SEQ ID NO 242 (peptide)
peptide: cyclo([Bip(4'-COOH)][4Pal][Phe(4-COOH)]G[Pro(cis-4-F)][Trp(βS-Me,4-F)][Aib]SW[d(αMeD)][dS]Q[Dab]G[dPro(4R-(4-pyridylmethyl))])
modifications: ring closure inferred
B2: SEQ ID NO 243 (peptide)
peptide: cyclo([Bip(4'-COOH)][4Pal][Phe(4-COOH)]G[Pro(cis-4-F)][Trp(βS-Me,4-F)][Aib]SW[d(αMeD)][dF]Q[Dab]G[dPro(4R-(4-pyridylmethyl))])
modifications: ring closure inferred
B3: SEQ ID NO 244 (peptide)
peptide: cyclo([Bip][4Pal][Phe(4-COOH)]G[Pro(cis-4-F)][Trp(βS-Me,4-F)][Aib]SW[d(αMeD)][dK]Q[Dap(CONH2)]G[dPro(4R-(4-pyridylmethyl))])
modifications: ring closure inferred
B4: SEQ ID NO 245 (peptide)
peptide: cyclo([Bip][4Pal][Phe(4-COOH)]G[Pro(cis-4-F)][Trp(βS-Me,4-F)][Aib]SW[d(αMeD)][dOrn]Q[Dap(CONH2)]G[dPro(4R-(4-pyridylmethyl))])
modifications: ring closure inferred
B5: SEQ ID NO 246 (peptide)
peptide: cyclo([Bip][4Pal][Phe(4-COOH)]G[Pro(cis-4-F)][Trp(βS-Me,4-F)][Aib]SW[d(αMeD)][dDap]Q[Dap(CONH2)]G[dPro(4R-(4-pyridylmethyl))])
modifications: ring closure inferred
B6: SEQ ID NO 247 (peptide)
peptide: cyclo([Bip][4Pal][Phe(4-COOH)]G[Pro(cis-4-F)][Trp(βS-Me,4-F)][Aib]SW[d(αMeD)][dDab]Q[Dap(CONH2)]G[dPro(4R-(4-pyridylmethyl))])
modifications: ring closure inferred
B7: SEQ ID NO 248 (peptide)
peptide: cyclo([Bip][4Pal][Phe(4-COOH)]G[Pro(cis-4-F)][Trp(βS-Me,4-F)][Aib]SW[d(αMeD)][dDab]Q[Dab]G[dPro(4R-(4-pyridylmethyl))])
modifications: ring closure inferred
B8: SEQ ID NO 249 (peptide)
peptide: cyclo([Bip][4Pal][Phe(4-COOH)]G[Pro(cis-4-F)][Trp(βS-Me,4-F)][Aib]SW[d(αMeD)][dE]Q[Dab]G[dPro(4R-(4-pyridylmethyl))])
modifications: ring closure inferred
B9: SEQ ID NO 250 (peptide)
peptide: cyclo([Bip][4Pal][Phe(4-COOH)]G[Pro(cis-4-F)][Trp(βS-Me,4-F)][Aib]SW[Aib][dE]Q[Dab]G[dPro(4R-(4-pyridylmethyl))])
modifications: ring closure inferred
B10: SEQ ID NO 251 (peptide)
peptide: cyclo([Bip(4'-COOH)][4Pal][Phe(4-COOH)]G[Pro(cis-4-F)][Trp(βS-Me,4-F)][Aib]S[Trp(4-Cl)][d(αMeD)][Ala(pyrimidin-5-yl)]Q[Dab]G[dPro(4R-(4-pyridylmethyl))])
modifications: ring closure inferred
B11: SEQ ID NO 252 (peptide)
peptide: cyclo([Bip(4'-COOH)][4Pal][Phe(4-COOH)]G[Pro(cis-4-F)][Trp(βS-Me,4-F)][Aib]S[Trp(4-F)][d(αMeD)][Ala(pyrimidin-5-yl)]Q[Dab]G[dPro(4R-(4-pyridylmethyl))])
modifications: ring closure inferred
B12: SEQ ID NO 253 (peptide)
peptide: cyclo([Bip(4'-COOH)][4Pal][Phe(4-COOH)]G[Pro(cis-4-F)][Trp(βS-Me,4-F)][Aib]SW[d(αMeD)][Nva]Q[Dab]G[dPro(4R-(4-pyridylmethyl))])
modifications: ring closure inferred
B13: SEQ ID NO 254 (peptide)
peptide: cyclo([Bip(4'-COOH)][4Pal][Phe(4-COOH)]G[Pro(cis-4-F)][Trp(βS-Me,4-F)][Aib]SW[d(αMeD)][alTOMe]Q[Dab]G[dPro(4R-(4-pyridylmethyl))])
modifications: ring closure inferred
B14: SEQ ID NO 255 (peptide)
peptide: cyclo([Bip(4'-COOH)][4Pal][Phe(4-COOH)]G[Pro(cis-4-F)][Trp(βS-Me,4-F)][Aib]SW[d(αMeD)][ThrOMe]Q[Dab]G[dPro(4R-(4-pyridylmethyl))])
modifications: ring closure inferred
B15: SEQ ID NO 256 (peptide)
peptide: cyclo([Bip(4'-COOH)][4Pal][Phe(4-COOH)]G[Pro(cis-4-F)][Trp(βS-Me,4-F)][Aib]SW[d(αMeD)][hTyr]Q[Dab]G[dPro(4R-(4-pyridylmethyl))])
modifications: ring closure inferred
B16: SEQ ID NO 257 (peptide)
peptide: cyclo([Bip(4'-COOH)][4Pal][Phe(4-COOH)]G[Pro(cis-4-F)][Trp(βS-Me,4-F)][Aib]SW[d(αMeF)][aThr]Q[Dab]G[dPro(4R-(4-pyridylmethyl))])
modifications: ring closure inferred
B17: SEQ ID NO 258 (peptide)
peptide: cyclo([Bip(4'-COOH)][4Pal][Phe(4-COOH)]G[Pro(cis-4-F)][Trp(βS-Me,4-F)][Aib]SW[d(αMeF)]EQ[Dab]G[dPro(4R-(4-pyridylmethyl))])
modifications: ring closure inferred
B18: SEQ ID NO 259 (peptide)
peptide: cyclo([Bip(4'-COOH)][4Pal][Phe(4-COOH)]G[Pro(cis-4-F)][Trp(βS-Me,4-F)][Aib]SW[d(αMeF)]DQ[Dab]G[dPro(4R-(4-pyridylmethyl))])
modifications: ring closure inferred
B19: SEQ ID NO 260 (peptide)
peptide: cyclo([Bip(4'-COOH)][4Pal][Phe(4-COOH)]G[Pro(cis-4-F)][Trp(βS-Me,4-F)][Aib]SW[daMeSMe][Ala(pyrimidin-5-yl)]Q[Dab]G[dPro(4R-(4-pyridylmethyl))])
modifications: ring closure inferred
B20: SEQ ID NO 261 (peptide)
peptide: cyclo([Bip(4'-COOH)][4Pal][Phe(4-COOH)]G[Pro(cis-4-F)][Trp(βS-Me,4-F)][Aib]SW[daMeSMe][aThr]Q[Dab]G[dPro(4R-(4-pyridylmethyl))])
modifications: ring closure inferred
B21: SEQ ID NO 262 (peptide)
peptide: cyclo([Bip(4'-COOH)][4Pal][Phe(4-COOH)]G[Pro(cis-4-F)][Trp(βS-Me,4-F)][Aib]SW[Aib][Ala(pyrimidin-5-yl)]Q[NMeDab]G[dPro(4R-(4-pyridylmethyl))])
modifications: ring closure inferred
B22: SEQ ID NO 263 (peptide)
peptide: cyclo([Bip(4'-COOH)][4Pal][Phe(4-COOH)]G[Pro(cis-4-F)][Trp(βS-Me,4-F)][Aib]SW[d(αMeD)][sbOH4Pal]Q[Dab]G[dPro(3S-(4-F-Bn))])
modifications: ring closure inferred
B23: SEQ ID NO 264 (peptide)
peptide: cyclo([Bip][4Pal][Phe(4-COOH)]G[cisHyp][Trp(βS-Me,4-F)][Aib]SW[d(αMeD)][Ala(pyrimidin-5-yl)]Q[Dab]G[dPro(4R-(4-pyridylmethyl))])
modifications: ring closure inferred
B24: SEQ ID NO 265 (peptide)
peptide: cyclo([Bip][4Pal][Phe(4-COOH)]G[Pro(cis-4-F)][Trp(βS-Me,4-F)][Aib]SW[Aib][dD]Q[Dab]G[dPro(4R-(4-pyridylmethyl))])
modifications: ring closure inferred
B25: SEQ ID NO 266 (peptide)
peptide: cyclo([Bip(4'-COOH)][4Pal][Phe(4-COOH)]G[Pro(cis-4-F)][Trp(βS-Me,4-F)][Aib]SW[Aib][Met(O2)]Q[Dab]G[dPro(4R-(4-pyridylmethyl))])
modifications: ring closure inferred
B26: SEQ ID NO 267 (peptide)
peptide: cyclo([Bip(4'-COOH)][4Pal][Phe(4-COOH)]G[Pro(cis-4-F)][Trp(βS-Me,4-F)][Aib]SW[Aib][AlaPyrim4CONH2]Q[Dab]G[dPro(4R-(4-pyridylmethyl))])
modifications: ring closure inferred
B27: SEQ ID NO: 239 (peptide)
peptide: [Bip(4'-COOH)][4Pal][Phe(4-COOH)]G[Pro(cis-4-F)][Trp(βS-Me,4-F)][Aib]SW[d(αMeD)][dCba]Q[Dab]G[dProc3CH24Pal]
modifications: lactam (positions not given here); also: macrolactam, ring places not given here
B28: SEQ ID NO: 240 (peptide)
peptide: cyclo([Bip(4'-COOH)][4Pal][Phe(4-COOH)]G[Pro(cis-4-F)][Trp(βS-Me,4-F)][Aib]SW[d(αMeD)][d3Pal]Q[Dab]G[dProc3CH24Pal])
modifications: ring closure inferred
B29: SEQ ID NO: 241 (peptide)
peptide: cyclo([Bip(4'-COOH)][4Pal][Phe(4-COOH)]G[Pro(cis-4-F)][Trp(βS-Me,4-F)][Aib]SW[Aib][Ala(pyrimidin-5-yl)]Q[NMeDab]G[dProc3CH24Pal])
modifications: ring closure inferred

Each binder was assayed against Recombinant human IL-1β (BioLegend 579404) (human, UniProt P01584 117-269) (assay: cell-based or functional assay).

B1 and B2 are within 1.5-fold of each other in “MRC5 IC50” value: 0.019 nM for the first, 0.022 nM for the second.

B3 and B4 are within 1.5-fold of each other in “MRC5 IC50” value: 0.03 nM for the first, 0.027 nM for the second.

B5 and B6 are within 1.5-fold of each other in “MRC5 IC50” value: 0.031 nM for the first, 0.03 nM for the second.

Compared with B7, B8 is 1.8-fold lower in “MRC5 IC50” value: 0.028 nM for the first, 0.016 nM for the second.

Compared with B9, B10 is 2.1-fold lower in “MRC5 IC50” value: 0.027 nM for the first, 0.013 nM for the second.

B11 and B12 are the same in “MRC5 IC50” value: 0.013 nM for the first, 0.013 nM for the second.

B13 and B14 are within 1.5-fold of each other in “MRC5 IC50” value: 0.013 nM for the first, 0.011 nM for the second.

Going from B15 to B16, the “MRC5 IC50” value rises from 0.012 nM to 0.021 nM (1.8-fold).

B17 and B18 are within 1.5-fold of each other in “MRC5 IC50” value: 0.02 nM for the first, 0.014 nM for the second.

B19 and B20 are within 1.5-fold of each other in “MRC5 IC50” value: 0.013 nM for the first, 0.017 nM for the second.

B21 and B22 are within 1.5-fold of each other in “MRC5 IC50” value: 0.02 nM for the first, 0.017 nM for the second.

B23 and B24 are within 1.5-fold of each other in “MRC5 IC50” value: 0.017 nM for the first, 0.022 nM for the second.

B25 and B26 are within 1.5-fold of each other in “MRC5 IC50” value: 0.019 nM for the first, 0.014 nM for the second.

Target: Recombinant human IL-1β (BioLegend 579404) (human, UniProt P01584 117-269)
Assay: cell-based or functional assay
Remark: another data set of the same source

B27 and B28 are within 1.5-fold of each other in “MRC5 IC50” value: 0.02 nM for the first, 0.025 nM for the second.

With B29 the “MRC5 IC50” value was 0.018 nM.
